Measurements reported in PMC3407131, “Annexin A2 Is a Natural Extrahepatic Inhibitor of the PCSK9-Induced LDL Receptor Degradation” (PLoS ONE, 2012).

Molecular target: T1, biotin-labeled human PCSK9 protein (residues 30–692) (human, UniProt Q8NBP7 30-692, biotin-labeled (site not stated))
T1 construct: PCSK9, human, residues 30–692; written as one chain; Held on streptavidin donor beads by the biotin; also called biotinylated PCSK9; full length PCSK9; source: baculovirus expression, purified recombinant
Assay: AlphaScreen or HTRF; competition: biotin-PCSK9 (15 nM) and His-LDLR ectodomain (15 nM) mixed with increasing AnxA2 peptide, 60 min at 20°C in 25 mM Hepes pH 7.4, 100 mM NaCl, 0.5 mM CaCl2, 0.1% BSA; streptavidin donor and nickel chelate acceptor beads, overnight at 20°C
Conditions: both partners purified

T1 sequence (Q8NBP7 30-692): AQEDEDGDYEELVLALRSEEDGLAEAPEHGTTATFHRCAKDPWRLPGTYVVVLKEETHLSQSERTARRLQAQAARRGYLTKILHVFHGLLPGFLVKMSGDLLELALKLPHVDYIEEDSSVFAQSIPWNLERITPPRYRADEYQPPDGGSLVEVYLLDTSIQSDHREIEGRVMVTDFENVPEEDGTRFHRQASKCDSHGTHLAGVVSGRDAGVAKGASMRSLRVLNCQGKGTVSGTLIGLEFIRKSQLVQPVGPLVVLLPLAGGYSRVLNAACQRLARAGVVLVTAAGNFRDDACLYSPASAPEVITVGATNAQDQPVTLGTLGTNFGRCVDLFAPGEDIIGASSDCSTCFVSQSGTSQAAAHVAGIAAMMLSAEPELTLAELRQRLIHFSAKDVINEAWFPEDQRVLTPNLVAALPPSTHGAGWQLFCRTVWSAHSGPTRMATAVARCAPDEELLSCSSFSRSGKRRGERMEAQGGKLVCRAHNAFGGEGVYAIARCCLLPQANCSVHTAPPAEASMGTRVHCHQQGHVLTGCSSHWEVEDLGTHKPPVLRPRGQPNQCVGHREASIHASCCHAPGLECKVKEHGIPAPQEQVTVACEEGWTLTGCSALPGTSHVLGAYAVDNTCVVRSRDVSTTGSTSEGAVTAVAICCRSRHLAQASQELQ

Binder	IC50 [nM]	fold lower apparent potency than the peptide 25–97 [fold]
73 aa peptide corresponding to the AnxA2 R1 domain (residues 25–97) (peptide, UniProt P07355 25-97, looked up, N-terminus acetylated; C-terminal amide, annexin A2 (AnxA2), residues 25–97 of the R1 domain; also called 73-mer AnxA2 peptide (aa 25–97); long peptide form; source: synthetic peptide (solid phase synthesis, RP-HPLC purified)) peptide: GSVKAYTNFDAERDALNIETAIKTKGVDEVTIVNILTNRSNAQRQDIAFAYQRRTKKELASALKSALSGHLET	~600	
Ac-KGVDEVTIVNILTNRSNAQRQDIAFAYQRRTKKELASALKSALSGHLET-NH2 (peptide, UniProt P07355 49-97, looked up, annexin A2 (AnxA2), residues 49–97 of the R1 domain; also called intermediate length peptide (49–97); aa 49–97 peptide; source: synthetic peptide (solid phase synthesis, RP-HPLC purified)) [intermediate 49 aa AnxA2 peptide (residues 49–97)]		~20
